# Experimental data taken from publication PMC11388181.
# Columns and labels:
# [1] = Confocal immunofluorescence, HEK293; settings: glycan lost; control: wild type
# [2] = Western blot, B7-H5/GAPDH, HEK293 lysates; settings: glycan lost; control: wild type
Substance,localisation_or_trafficking [1],expression_or_secretion [2]
B7-H5/VISTA: N135A,no change,no change
B7-H5/VISTA: N49A,no change,no change
B7-H5/VISTA: N91A,no change,no change
B7-H5/VISTA: N128A,no change,no change
B7-H5/VISTA: N108A,no change,no change
